In a protein production outcome set (Wang et al. 2014):

Test: label from the status in PepcDB records

Sequence | protein production
MENFVFHNPTKIVFGRGTIPKIGEEIKNAGIRKVLFLYGGGSIKKNGVYDQVVDSLKKHGIEWVEVSGVKPNPVLSKVHEAVEVAKKEKVEAVLGVGGGSVVDSAKAVAAGALYEGDIWDAFIGKYQIEKALPIFDVLTISATGTEMNGNAVITNEKTKEKYGVSSKALYPKVSIIDPSVQFTLPKEQTVYGAVDAISHILEYYFDGSSPEISNEIAEGTIRTIMKMTERLIEKPDDYEARANLAWSATIALNGTMAVGRRGGEWACHRIEHSLSALYDIAHGAGLAIVFPAWMKYVYRKNPAQFERFAKKIFGFEGEGEELILKGIEAFKNWLKKVGAPVSLKDAGIPEEDIDKIVDNVMLLVEKNLKPKGASLGRIMVLEREDVREILKLAAK | not failed
MWWGVAAALLANVLYSTGFVLEKRALASLPEVDIRRPARLLRLVLGSPLWIGGSLSLAAGFGAQLAVYRTLPIAAAQGIFVSGLVLLVLLSARLLGEETTGRERYALGAILAALLMVVLSLREGSDKVSRSAPVPLILLVCVPSLAMGVWLYGSAERRARHRHRMPTTGVEYGVAVGLLYGVSSLAIKGVSSYLTPADGLGGAVVGLLRSPYPYLLLFTGVFGLVMSQAALQRCRASLIVPVCTTVTCLFTAVLGTLAFGEALPHEPLRLALRLAGTALAVSVLLAMPKHDTAPQPSAAPKELTPP | failed
MTRACNLYVFKNKYVSFNLLDSPNSNPKLLKISLPFNFMDEFEGLLKAVGSAPWYKLIGMVPKLQGDRVVVEMEIDRSKHLQALGTTHGGAIASVLDSAIGLNVNREVVKMGKTAVTAQLNIHYIRPVTEGKIVGVGMPMHIGSKVTVGYGEVRNEEGELVAAGTATFYIIDRRFRDLEHHHHHH | failed
MRAIAIVLARSSSKRIKNKNIIDFFNKPMLAYPIEVALNSKLFEKVFISSDSMEYVNLAKNYGASFLNLRPKILADDRATTLEVMAYHMEELELKDEDIACCLYGASALLQEKHLKNAFETLNKNQNTDYVFTCSPFSASPYRSFSLENGVQMAFKEHSNTRTQDLKTLYHDAGLLYMGKAQAFKEMRPIFSQNSIALELSPLEVQDIAHFRRFRISQAQIQPFEKRMPVKILCDCFLTSGLGHVRRCEKILSFIEKLGVEASLYLHKQNNISAFLEGVGGNDFLITDSYCLNSKDFYLLKEKAKSLMVIEDTEHAKGFYPKNTKILNFTLNALKHYHHLSKDYQYYLGVGFYPVDARFIYDRPINTENKEVLITLGGSEQKTLKEIVKILENKNVNLHIISPYTPKNPPKNTHYYSPLNPLEFSSLMKSCACAISAAGQTLYELALSQTPSLILPIASNQIIQSKEFESLGIFKQTSLKTLAKDFENLQIQKNQAWAKNLVFGDKLEGALREFLEI | failed
MGSSHHHHHHSSGLVPRGSHDSAQSDLKEVMVLNATESFVYEPKEQKKMFHATVATENEVFRVKVFNIDLKEKFTPKKIIAIANYVCRNGFLEVYPFTLVADVNADRNMEIPKGLIRSASVTPKINQLCSQTKGSFVNGVFEVHKKNVRGEFTYYEIQDNTGKMEVVVHGRLTTINCEEGDKLKLTCFELAPKSGNTGELRSVIHSHIKVIKTRK | not failed
MTPQFRALLVHLFTATGAVFAMLAMLAAVDAKWDLMFLWLVVAFFVDGLDGPMARRYHVKTYAPEFDGVLLDLIIDYLTYVFIPAFALFKSGLMDGWTGWLAIIIITFASAMYFADTRMKTKDNSFSGFPGCWNMVVLVIFALEPNFWVSLVLVTVLAVSMFLPLKFVHPVRTERWRAITLPMALAWTFFAGWAAWVGFHPESWAHWGLVVTSLYLIFAGIAQMVIPEKDTASPF | failed
MGNIIRALVAFIPTDRCQSYVVGDLREMPLDRMVDLSGSQLRRFPLHVCSFTELVKLYLSDNHLHSLPPDLAQLQNLQILALDFNNFKALPQAVCTLKQLCILYLGNNKLCDLPDELSLLQNLRTLWLESNCLTRLPDVVCELSLLKTLHAGSNALRLLPGQLRRLRELRTIWLSGNQLADFPSVLLHMPFLEVIDVDRNSIRYFPSLAHLTNLKLVIYDHNPCRNAPKVGKGVRRVGRWAEETPEPDRRKTRRSALAKEENQEPPPLLPPSS | failed
MEITLSKSLLIAVVLAPLLGSIIAGLFGRQVGRKGAQYVTILGVAVSCVLSCVTLYQLVEQGASPFNQNLYTFFDVGNYSAHVGFMVDRLTAMMMVVVTFVSLLVHIYTIGYMEEDPGYQRFFSYISLFTFSMLTLVMSNNFLQLFFGWEAVGLVSYLLIGFWFKRPTAVFANMKAFLVNRVGDFGFILGIAGVLLWFGSLDYSTVFANATTMAGAKVQLFAGHEWSVMTLICICLFIGAMGKSAQVPLHVWLPDSMEGPTPISALIHAATMVTAGIFMVARMSPLFELSETALNFILFIGATTAFFTGLIGIVQNDIKRVVAYSTLSQLGYMTVALGVSAYSAAVFHLMTHAFFKALLFLAAGSVIIGMHHEQDMRKMGGLRKYMKVTYWTSVIGTLALVGTPFFSGFYSKDTIIEAAAHHAHESHNWVATYGYWAVLGGVLVTSFYSFRLLFLTFHGKERFRDAHAHDVHSHHDSAHTDAEAQVHSHDAHAHDDHGHGHHGAHEPHESKWVVTLPLVLLAIPSIAIGFFTIGPMLFGTDWQGHHAVHAMKGQAVSFFTGIVDFYDPARDTVGALAEEFHGPVAFALHGMLAAPFFLTVAGLLLAALFYLWKPELATKSRKTFAPIVWLLENKYGFDKLWINGFAGGGVVLGKASRAVDTHVVDGAVVNGSARLIDLAANLLRRTQSGFLYHYAFAMIIGLIALLAVLMHFWR | failed
MATAALSAARPNRLSSASSDVPLHPLYLPTKLQFPSRKTQLWRSAAILLPTRRRCAPPRASSRADDSPPFDMSVETALKVLGVSEGASFDEILRAKKSILASRKDDPNAISQAEAAYDMLLMQSLNQRRAGKVVSNNIRYADVKSSNPLGTSTVTQWMKNPPVSVDMPSTSDLGIQAGVYGAMMVLTYVNGSSFESSGMPYAGADVPGLILASSFGASLYFMTKKKVKLGKAAALTAGGLVAGAVVGSAIETWLHVDVVPFLGLHSPAAVVSEFIVFSQFLVSLCLR | failed
MEQSLGSKQNLGSKQNQITKPHKLVLDNRKRTNLTGIEDVVEFDTTQIVLESSMGMLVIKGADLKITRLSIEKGEADIDGSVNSVIYSQIKNYGEKGKSVLKRMFS | failed
MISGFESIQLTTLILIVVAGFAAGWVDAVVGGGGLIQLPALLLVPGITPVQALATNKMGSIFGTTTSAVTYYRRVGPDLKTAVPMAVIALAGSFGGAILAASLPASVFKPIIVLALIAVAIFTALRPGAGELTALRHDGHKHYVVACLIGAVIGFYDGLIGPGTGSFLVIALVSAMGYAFLEASAKAKIVNMATNAGALIFFLPHGSLLWGVGLILGLANMAGGYLGARTAVARGSKFVRLVFLMVVAALIIKLGMDVWNENFAA | failed
MKKRILSAVLVSGVTLGTAAVTVNADDFDSKIAATDSVINTLSGQQAAAQNQVTAIKGQVGALESQQSELEAQNAQLEAVSQQLGQEIQTLSNKIVARNESLKKQVRSAQKGNLTNYINTILNSKSVSDAVNRVVAIREVVSANEKMLAQQEADKAALEAKQIENQNAINTVAANKQAIENNKAALATQRAQLEAAQLELSAQLTTVQNEKASLIQAKAQAEEAARKAAEAQAAAEAKAQAEAKAQAESVAKAQAAAQVESATAPTETVQTQPRTEIKPSNLTATSSATTVATTTATATNEPKVTQPSVVTKAVEAPKAVVSSTPRAVSKPVVRSYDSSNTYPMGQCTWGAKSMASWVGNYWGNANQWGASARAAGYSVGTTPRVGAVAVWPYDGGGYGHVAVVTSVANNSSIQVMESNYAGNMSIGNYRGSFNPSASGSVYYIYPN | failed
MDTYMIDAELEHYLGERLSSSSRQALCRLHVRACARFHGAELEEYRRRLRAHARAYARLGRMLQSPFRHMETALFLSSFTLFVAGIIMVVNGDLSALVACGTAAGLVGMIECARKLAGHWHRYGVMEAVYRELEEQLANG | failed
RAQTFEAVTPEYSRYAGQAFGSFQAMLSDLPDELGETIPNFHNMEFRLGQLHDALKTDPVGRAEEVRYYIDEIEKRAEEMCKAERLHREGKLPKRVCHCDTKVNNMLFDEDGHVLCVIDLDTVMPNFIFSDYGDFLRTGANTGEEDDKDLDHVNFDMEIFKAFTEGYLKGASSFLTDVEIENLPYAAALFPYMQCVRFLTDYINGDTYYKIKYPEHNLVRTRAQFRLLQSVEDCMPQMQAFIDQCLRY | not failed
MDRSYAVFGLGEFGRSVSYELMEIGADVLAVDKNENKITAIADDVTMAISIDALNEMAYEKLGLNNMDGVVVSMSGNLSASIMAIIAAKDAGVPLVIAKASDDTQRTIFKKVGADRVVIPERDGAVRTAHNLVAKNFLDYIELSDKISIIEINVKDEWLHKPLAELNLRSKYGLNVIAIRRNNDLQTDIGPNLTFDKGDTILVVTDKHDLGL | failed
MEDLVTAPTPLDKRWLTEAVRLREEHAGPLEDQEANRHARQLGGDLATRIETRALFLAERDDMTGALRHWKQGARLALLALLLMAVLSGTGLGLAALGDGQRPVNVFWALGSLLGLNLLMLLGWGMGFALSGEHGAGLGRLWLWLSERFARDAKAAHLAPALLVLLQRQRLNRWLLGLLVHGLWLLAMLTALGMLLVLLATRRYGFVWETTLLAADPFIHLTQALGALPSLLGFAVPDEAMIRASGDSLPALDVARQAWASWLLGVVLVYGLLPRLLLAGLCLWRWRQGRERLTLDLGLPGYAQLREALMPRSERIGVQDAAPQALPQFAAGQLESGSSGALLVGLELDDQRPWPPALPKSVTDAGVLDSRESRNRLLEQLSRFPPARLAIACDPRRSPDRGSLALLAELARNAGATRIWLLQAAPGQPLDAERLGDWHEALDRLGLQHADTSPLTWLEHGHD | failed
MVSRDFDRDKRLLTARQFSAVFDSPTGKVPGKHVLLLARENGLDHPRLGLVIGKKNVKLAVQRNRLKRLIRESFRHNQETLAGWDIVVIARKGLGELENPELHQQFGKLWKRLLRNRPRTESPADAPGVAD | not failed
MNIVSWKDANDEVAGGATTRREREVKEDQEETEVRATSGKTVIKKQPTSISSSSSSWMKSKDPRIVRVSRAFGGKDRHSKVCTLRGLRDRRVRLSVPTAIQLYDLQERLGVDQPSKAVDWLLDAAKEEIDELPPLPISPENFSIFNHHQSFLNLGQRPGQDPTQLGFKINGCVQKSTTTSREENDREKGENDVVYTNNHHVGSYGTYHNLEHHHHHHQHLSLQADYHSHQLHSLVPFPSQILVCPMTTSPTTTTIQSLFPSSSSAGSGTMETLDPRQMVSHFQMPLMGNSSSSSSQNISTLYSLLHGSSSNNGGRDIDNRMSSVQFNRTNSTTTANMSRHLGSERCTSRGSDHHM | failed
MRLFIVQAMFTEYRPTHGYDEYFCREQSAPRADLEPLLSSLGAMGLAELNRSHASASNLLRRLGATFRLNGSGLHGGERILPFDPLPRLIHRQEWSVLERGLVQRLEAIDQFLADVYGPQRILNDGVIPREDVESSQGWRPQMQDIAVPLNRWCHISGLDLIRDGDGTWRVLEDNLRCPSGVAYFLENRRVMKRLFPSLFQGRTVQPIDDYPSHLLRTLQDLAPWSDAPRVVLLTPGVFNSAYFEHSYLAQQMGIALVEGRDLICEDGRVWMRSTAGREPVDVIYRRIDDDFLDPNVFRRDSMLGVPGLIDAMRSGRVAIANAPGSGVADDKLIYAYVPAMIRYYLNEEPIIDNVPTYLCSRDDDRRYVLEHLNELVVKSVAEAGGYGMLIGPHASSEEIESFAVKIKAHPRNFIAQPTLQLSTVPSLSEGELYPCHVDLRPYVLRGKSDWVSPGGLTRVALKRGSLVVNSSQGGGCKDTWVVSDSAVTAGNQELVPC | failed
